In the nanobody polyreactivity screen of Harvey et al. (2022):

Assay: yeast display, Sf9 membrane polyspecificity reagent, FACS + sequencing; frameworks hold sequencing errors
Procedure, shortened: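 Genes from sorted yeast were amplified by colony PCR, read by MiSeq 2 × 250 sequencing and filtered on CDR length. These cells carried a synthetic nanobody library in Saccharomyces cerevisiae BJ5465 and were sorted by FACS into low and high (top ~1%) gates on anti-HA and streptavidin fluorescence. Polyreactivity is labelled according to the gate of origin.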

| Sequence | polyreactivity (PSR sort gate) |
| --- | --- |
| QVQLVESGGGLVQAGGSLRLSCAASGRIFPWNTMGWYRQAPGKERELVAGITSCGSTNYADSVKGRFTISRDNAKNTVYLQMNSLKPEDTAVYSCAARGYYWYISGVYEYEYWGQGTQVTVSS | low polyreactivity |
| QVQIVESGGGLVQAGGSLRLSCAASGSIFVVNAMGWYRQAPRKERELVAAIDWSGDTTYYADSEKGRFTISRDYAKNTVYFQMNSLKPEDTAVYYCAAEYEFHEYDYWGQGTQVTVSS | high polyreactivity |
| QVQLVESGGGLGQAGGSLRLSCAASGSIFEGNGMGWYRPAPGKERELVAAITFRSGSTYYADSVKGRFTISRDNAKNTVYLQMNSLKPEDTAVYYCAADEYYQVSAYDYWGQGTQVTVSS | low polyreactivity |
| QVQLVESGGGLVQAGGSLRLSCADSGRIFGRYAMGWYRQAPGKERDLVAAIRSGGSTYYADSVKGRFTISRDNAKNSVYLQMNSLKPEDTAVYYCAADWGPFRLGYGYYYWGQGTQVTVSS | high polyreactivity |
| QVQLVESGGGLVQAGGSLRLSCAASGRTFGGYAMGWYRQAPGKERELVADITSSGSTTYYADSVKGRFTISRDNSKNNVYLERYSLKPEDTAVYYCNAEGYSPVLYDYWGQGTQVTVSS | low polyreactivity |
| QVQLVESGGGLVQAGGSLRLSCAASGRIFSKYAMGWYRQAPGKERELVASIRWRGDRTYYADSVKGRFTISRDNAKNTVYLQMNSLKPEDTAVYYCAVETLWQGSEYWVQGTQVTVSS | low polyreactivity |
| QVQLVESGGGLVQAGGSLRLSCAASGSTFAYYAMGWYRQAPGKERELVAAISVSGGRTYYADSVKGRFTISRDNAKNTVYLQMNSLKPEDTAVYYCAKRFIYGRYNYWGQGTQVTVSS | high polyreactivity |
| QVQLVESGGGLVQAGGSLRLSCAASGRILHANAMGWYRQAPGKEREFVAAISVSGVSTYYADSVKGRFTISRDNAKNTVYLQMNSLKPEDTAVYYCNAETYSWYDYWGQGTQVTVSS | high polyreactivity |
| QVQLVESGGGLVQAGGSLRLSCAASGSIFPRYAMGWYRQAPGKERELVAAITSGGSTNYADSVKGRFTISRDNAKNTVYLQMNSLKPDDTAVYYCATVRSLKEGASYFYWGQGTQVTVSS | high polyreactivity |
| QVQLVESGGGLVQAGGSLRLSCAASGITFGYYAMGWYRQAHGKERELVAAITYSGGSTYYADSVKGRFTISRDNAKNTVYLQMNSIKPEDTAVYYCAADDGYTYYWAGYDSWGQGTQVSVSS | low polyreactivity |
| QVQLVESGGGLVQAGGSLSLRCAGSGRTFRTYTMGWYRQARGKERELVAAISWSGSSTYYADSVKGRVTISRDHAKNTVYLQLNSLKPEDTAVYYCAARYVSRRFLGYYYWGQGTQVTVSS | high polyreactivity |
| QVQLVESGGGLVQAGGSLRLTCAASGSTFYSYVMGWYRQAPGKERELVAAIDYSGDSTYYADSVKGRFTISRDNAKNTVYLQMNSLKPEDTAVYYCAKDGVWYYSGTGMDYWGHGTQVTVSS | low polyreactivity |
| QVQLVESGGGLVQAGGSLRLSCAASGRIFWVYAMGGYRQAPGKERELVAAINTSVGRTHYADSVKGRFTISRDNAKNTVYLQMNSLKPEDTAVYYCAADVKRYGWEYGYWGQGTQVTVSS | low polyreactivity |
| QVQLVESGGGLVQAGGSLRLSCAASGFTFSNYAMGWYRQAPGKEREFVAAISGTGGSTYYADSVKGRFTISRDNAKNTVYLQMNSLKPEDTAVYYCNARERVSRQYTFDYWGQGTQVTVSS | high polyreactivity |
| QVQLVESGGGLVQAGGSLRLSCAASGITFQYYAMGWYRQAPGKERELVAAISSGGSTYYADSVKGRFTISRDNAKNTVYLQMNILKPEDTAVYYCAAKRVFFGLNYDYWGQGTQVTVSS | high polyreactivity |
| QVELVESGGGLVQAGGSLRLSCAASGRISYLYTMGWYRQAPGKERELFAASRWRDGSTYYADSVKGRFTISRDNAKTTVYLQMNSLKPEDTAVYFCGATPVGFYWYDYWGQGTQVTVSS | low polyreactivity |
| QVQLVESGGGLVQARGSLRLSCAASGFTFRSYTMGWYRQAHGKERELVAAITSRGTSTYYADSVKGRFTISLDNAKNTVYLQMNSLKPEDTAVYYCAAPIYNGYASWQVYYWGQGTQVTVSS | high polyreactivity |
| QVQLVESGGGLVQAGGSLRLSCAASGRTFDTYAMGWYRQAPGKEREFVARISYGGGITYYADSVKGRFTISRDNAKNTVYLQMNSLKPEDTAVYYCAARRFRTYDFYYWGQGTQVTVSS | high polyreactivity |
| QVQLVESGGGLVQAGGILRLSCAASGIIFSEYAMGWYRQAPGKERELVAAISKSSGSTRYADSVKGRFTISRDNAKNTVYLQMNSLKPEDTAVYYCAREYRWRYGYDYWGQGTQVTVSS | high polyreactivity |
| QVQLVESGGGLVQAGGSLRLSCAASGSIFTSNAMGWYRQAPGKEWELVAAITSDGAITYADSVKRRFTISRDNAKNTVYLQMNTLKPEDTAVYYCAARIRQNPGGDNSWGQGTQVTVSS | low polyreactivity |
| QVQLVESGGGLVQAGGSLRLSCAASGITFDDYAMGWYRQAPGKERELVAAISESGDSTYYADSVKGRFTISRDNAKNTVYFQMNSLKPEDTAVYYCAADSTYYYGWGMYYWGQGTQVTVSS | high polyreactivity |
| QVQLVESGGGLVQAGGSLRLSCAASGIIVPNAMGWYRQAPGKERELVAVITSGGSTYYADSVKGRFTISRDNAKNTVYLQMNSLKPEDTAVYYCNKDYAAIDRYDSWGQGTQVTVSS | low polyreactivity |

| Sequence | polyreactivity (PSR sort gate) |
| --- | --- |
| QVQLVESGGGLVQAGGTLRLSCAATGITFDAYVMGWYRQAPGKERELVAGIYSGGSTYYADSVKGRFTISRDNAKNTVYLQMNSLKPEDTAVYYWARENYRFADEPPVSRQIPYDYWGQGTQVTVSS | low polyreactivity |
| RVQLVQSGGGLVQAGGSLRLSCAASGRIFSYNAMGWYRQAPGKERELVAAITFSGGGTYYADSVKGRFTISRDNAKNTVYLQMNSLIPEDTAVYYCNKVSYGYSTYGYWGQGTQVTVSS | low polyreactivity |
| QVQLVESGGGLVQAGGSVSLSCAASGTFSPYAMGWYRQAPGKERELVADITSNTGRTYADSVKGRFTISRDNAKNTVYLKMNSLKPEDTSVYYCNTYGSGTHSSGYDYWGQGTQVTVSS | low polyreactivity |
| QFQLVESGGGLVQAGGSLRLSCAASGRIFPGYAMGWYRQAPGKERELVAAISERGGSTYYADSVKGRFTISRDHAKNTVYLQMNSLKPEDTAVYYCAAIWRGGYNYWGQGTQVTVSS | low polyreactivity |
| QVQLVESGGGLVQAGGSLRLSCAASGRTFYRNAMGWYRQAPGKERELVAAITSGGSTYYADSVKGRFTISRDNAKNTVYLQINSLKPEDTAVYYCAKRKGWVPSRSWTPAFWGQGTQVTVSS | low polyreactivity |
| QVQLVESGGGLVQAGGSLRLSCAASGSTFTKYDMGWYRQAPGKERELVAAIRSGGDTNYADSVKGRFTISRDNAKNTVYLQMNSLKPEDTAVYYCAATVLGDYEYWGQGTQVTVSS | low polyreactivity |
| QVQLVESGGGLVQAGGSLRLSCAASVRIFRGNDMGWYRKAPGKERELVARITGNDGDTYYADSVKGRFTISRDNAKNTVYLQMNSLKPEDTAVYYCATDTSSYRRRYYYWGQGTQVTVSS | low polyreactivity |
| QVQLVESGGGLVQAGGSLRLSCAASGLTFGGYVMGWYRQAPGKERELVAAISGSGGRTYYADSVKGRFTISRDNAKNTVYLQRNSLKPEDTAVYDCARPPRGPPRGYYWGQGTQVTVSS | high polyreactivity |
| QQQLQESGSGLVQAGGSLRLSCAASGNIFQDWVMGWYRQAPGKERELVAAISPGAITYYADSVKGRFTISRDNAKNTVYLQTNSLKPEDTAVYYCAAYYIVEYLHGYWGQGTRVTVSS | low polyreactivity |
| QVQLVESGGGLVQAGGSLRLSCAASGRIFKLNAMGWYRQAPGKERELVAAITRGGRTYYADSVKGRFTISRDNAKNTVYLQMNSLKPEDTAVYYCNKKTYQQTYKYDYWGQGTQVTVSS | high polyreactivity |
| QVHLVESGGGLVQAGGSLRLSCAASGRLFFYALGWYRQSPRKERELVAAISWSGGSTYYADSVKGRFTISRDNAKNTVYLQMNSLKPEDTAVYYCAADYEGWGYDYRGDYWGQGTQVTVSS | low polyreactivity |
| QVQLVESGGGLVQAGGSLRLSCAASGLIFRYYAMGWYRQAPGKERELVAAISWSGASTYYADSVKGRFTISRDNAKNTVYLQMNSLKPEDTAVYYCGRVSYYYPSEYNYWGQGTQVTVSS | high polyreactivity |
| QVQLVESGGGLVQAGGSLRLSCAASGSTFAVYAMGWYRQAPGKVRELVAAMRYSGGSTYADSVKGRFTISRDNAKNTVYLQMNSLKPEDTAVYYCAAYVYSLGGEYGYWGQGTHVTVSS | high polyreactivity |
| QVQHVESGGGLVQAGGSLRLSCAASGSINSNAMGWYRQARGKERELVAAISGSGSTTYYADSVKGRFTISRDNAKNTVYLKMNSLKPEDTAVYYCARGVYGRGRTERYYWGQGTQVIVSS | high polyreactivity |
| QVQLVESGGGLVQAGGSLRLSCAASGYTFYYYAMGWYRQAPGKEREFVAAISWRGGRTYYADSVKGRFTISRDNAKNTVYLQMNSLKPEDTAVYYCAARRDGWTFWKYDYWGQGTQVTVSS | high polyreactivity |
| QVQLQESAGGLVQAGDSQRMSCAASGNSFRFTDMGWYRQAPGKERELVAAINAGSTTYYADSVKGRFTISLDNAKNTVYLQMNSLKPEDTAVYYCAVYYLGSGTFGYWGQGAQVTVSS | high polyreactivity |
| QVQLVESGGGLVQAGGSLRLSCAASGGIFNVNAMGWYRQAPWKERELVAAIDWSSSSTDYADSVKGRFTISRDNAKNTVYLQMNSLKPEDTAVYYCAKLAGYSPTFEYWGQGTQVTVSS | low polyreactivity |
| QFQLEESGGGLVQAGGSLRLSCAASGSTFWYNAMVWYIQATGKEMELVAAISSSGGSTYYADSVKGRFTISRDNAKYTVYLQMNSLKPEDSAVYYCNTRYVYTRGGTLKRDYLGQGTQVTVSS | high polyreactivity |
| QVQLVESGGGLVQAGGSLRLSCAASGSTFIGYAMGWYRQAPGKERELVASISWGGGSTYYADSVKGRFTISRDNAKNTVYLQQNSLIPEDTAVYYCNTYYWFSGCPYDYWGQGTQVTVSS | low polyreactivity |
| QVQLVESGGGLVQARGSLRLRFAASGSTFPYYAMGWDRQAPGKERELVATITKRGGRKYYADSVKGRFTISRDNAKNTVYFLMTSLKPEDTAVYYCAARFRFAVTYDYWGQGTQVTVSS | high polyreactivity |
| QVQLVESGGGLVQAGGSLRLSCAASGITFIYYAMGWYRQAPGKERELVAAITWRGGSTYYADSVKGRFTISRDNAKYTVYLQMNSLKPEDTAVYYCNKGGISGRDYWGQGTQVTVSS | high polyreactivity |
